This assay addresses syntenin-1 N-terminal wild-type peptide, biotinylated (UniProt O00560). Briefly: SPR; BIAcore 3000; biotinylated syntenin-1 N-terminal peptides immobilised on streptavidin-coupled CM5 chips, ALIX V-domain injected at 20 μl/min; 10 mM HEPES pH 7.4, 150 mM NaCl, 0.005% Surfactant P20; equilibrium analysis, one-site binding model.

One may read the Kd as the concentration at which binding is half-saturated. In the case of “ALIX V-domain (ALIX 364-716) (from UniProt Q8WUM4 364-716) (domain or fragment)”, the Kd stood at 29 µM.

The values are drawn from publication PMC5006017.
